Measurements from patent US20120263644A1.

Target: leukocyte function antigen-1 (LFA-1), composed of CD11a and CD18, on human white blood cells (human) (UniProt P20701)
Assay: cell-based or functional assay

Chain of leukocyte function antigen-1 (LFA-1), composed of CD11a and CD18, on human white blood cells (human) (P20701 26-1170, chain 1 of 2): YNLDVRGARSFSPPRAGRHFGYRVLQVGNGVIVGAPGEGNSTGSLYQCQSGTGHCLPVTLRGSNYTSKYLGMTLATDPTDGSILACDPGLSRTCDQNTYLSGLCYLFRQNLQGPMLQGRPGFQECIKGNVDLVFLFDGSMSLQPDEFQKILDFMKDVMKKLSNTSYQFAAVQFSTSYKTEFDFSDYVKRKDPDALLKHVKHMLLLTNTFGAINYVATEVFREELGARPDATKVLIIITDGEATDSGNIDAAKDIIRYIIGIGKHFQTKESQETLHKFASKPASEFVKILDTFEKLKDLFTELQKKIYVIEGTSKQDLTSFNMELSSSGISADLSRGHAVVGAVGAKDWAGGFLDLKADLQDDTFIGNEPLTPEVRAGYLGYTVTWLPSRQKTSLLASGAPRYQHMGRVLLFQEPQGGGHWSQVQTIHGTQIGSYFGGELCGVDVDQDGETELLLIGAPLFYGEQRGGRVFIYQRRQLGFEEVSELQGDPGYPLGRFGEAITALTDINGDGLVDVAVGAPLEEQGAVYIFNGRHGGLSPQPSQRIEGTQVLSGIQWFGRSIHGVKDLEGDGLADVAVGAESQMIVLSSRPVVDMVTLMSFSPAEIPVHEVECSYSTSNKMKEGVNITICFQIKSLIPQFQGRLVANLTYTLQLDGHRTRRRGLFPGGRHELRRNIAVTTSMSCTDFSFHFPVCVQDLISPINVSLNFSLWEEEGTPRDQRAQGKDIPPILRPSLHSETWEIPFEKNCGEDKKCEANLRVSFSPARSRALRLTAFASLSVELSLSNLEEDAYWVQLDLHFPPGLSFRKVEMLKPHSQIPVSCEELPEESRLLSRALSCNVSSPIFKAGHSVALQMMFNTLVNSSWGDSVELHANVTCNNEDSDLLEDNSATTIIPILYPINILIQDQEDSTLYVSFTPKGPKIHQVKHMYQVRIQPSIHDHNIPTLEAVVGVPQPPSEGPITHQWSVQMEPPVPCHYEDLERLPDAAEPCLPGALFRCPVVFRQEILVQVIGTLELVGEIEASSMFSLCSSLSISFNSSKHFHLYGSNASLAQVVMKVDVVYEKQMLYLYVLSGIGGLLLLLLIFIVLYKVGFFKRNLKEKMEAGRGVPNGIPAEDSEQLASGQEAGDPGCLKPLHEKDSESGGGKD
Chain of leukocyte function antigen-1 (LFA-1), composed of CD11a and CD18, on human white blood cells (human) (P05107 23-769, chain 2 of 2, further chain): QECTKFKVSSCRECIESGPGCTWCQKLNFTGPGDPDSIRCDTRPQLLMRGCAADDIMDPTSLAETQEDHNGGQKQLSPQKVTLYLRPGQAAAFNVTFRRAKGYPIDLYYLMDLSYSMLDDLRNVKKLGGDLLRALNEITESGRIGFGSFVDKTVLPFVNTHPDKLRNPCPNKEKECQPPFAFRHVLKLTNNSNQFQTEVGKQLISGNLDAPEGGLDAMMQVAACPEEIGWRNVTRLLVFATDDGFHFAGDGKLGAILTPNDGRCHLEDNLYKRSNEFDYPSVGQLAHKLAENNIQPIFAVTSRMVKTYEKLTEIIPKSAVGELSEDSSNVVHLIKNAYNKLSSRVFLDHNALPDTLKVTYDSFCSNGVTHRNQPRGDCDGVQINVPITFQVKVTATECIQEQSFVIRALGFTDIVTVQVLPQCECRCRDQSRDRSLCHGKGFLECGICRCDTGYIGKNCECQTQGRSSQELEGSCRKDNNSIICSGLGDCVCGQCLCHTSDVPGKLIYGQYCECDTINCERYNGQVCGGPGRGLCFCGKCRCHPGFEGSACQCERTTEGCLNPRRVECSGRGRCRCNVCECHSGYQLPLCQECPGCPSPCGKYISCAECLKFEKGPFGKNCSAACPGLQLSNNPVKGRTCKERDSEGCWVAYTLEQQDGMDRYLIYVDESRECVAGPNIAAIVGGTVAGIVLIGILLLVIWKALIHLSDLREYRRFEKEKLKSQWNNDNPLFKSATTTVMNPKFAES

An IC50 of inhibition of proliferation of Jurkat cells (CellTiter Glo) of 5000 µg/mL was found for “Efalizumab (RAPTIVA), anti-LFA-1 mAb (antibody)” in this work.
